From article PMC5053618 (2016)

Molecular target: T1, soluble EPCR ECD (truncated after Ser210) (Homo sapiens, UniProt Q9UNN8)
T1 chain: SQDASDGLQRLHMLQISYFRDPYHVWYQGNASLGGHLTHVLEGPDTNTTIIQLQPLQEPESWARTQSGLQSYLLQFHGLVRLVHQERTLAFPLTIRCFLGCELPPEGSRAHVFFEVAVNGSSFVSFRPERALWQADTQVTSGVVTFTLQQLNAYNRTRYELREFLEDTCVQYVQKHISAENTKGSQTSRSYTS
Test: solid-phase plate binding assay

B1: activated protein C (protein)
chain 1: ANSFLEELRHSSLERECIEEICDFEEAKEIFQNVDDTLAFWSKHVDGDQCLVLPLEHPCASLCCGHGTCIDGIGSFSCDCRSGWEGRFCQREVSFLNCSLDNGGCTHYCLEEVGWRRCSCAPGYKLGDDLLQCHPAVKFPCGRPWKRMEKKRSHL
chain 2: LIDGKMTRRGDSPWQVVLLDSKKKLACGAVLIHPSWVLTAAHCMDESKKLLVRLGEYDLRRWEKWELDLDIKEVFVHPNYSKSTTDNDIALLHLAQPATLSQTIVPICLPDSGLAERELNQAGQETLVTGWGYHSSREKEAKRNRTFVLNFIKIPVVPHNECSEVMSNMVSENMLCAGILGDRQDACEGDSGGPMVASFHGTWFLVGLVSWGEGCGLLHNYGVYTKVSRYLDWIHGHIRDKEAPQKSWAP
modifications: APC biotinylated with biotin-FPR-chloromethylketone, Ca2+ and Mg2+
Kd: 24 nM
